In this experiment the target is T1, bacterially expressed human SDC1 ectodomain (hS1ED) (human, UniProt P18827 23-254).
T1 sequence (looked up): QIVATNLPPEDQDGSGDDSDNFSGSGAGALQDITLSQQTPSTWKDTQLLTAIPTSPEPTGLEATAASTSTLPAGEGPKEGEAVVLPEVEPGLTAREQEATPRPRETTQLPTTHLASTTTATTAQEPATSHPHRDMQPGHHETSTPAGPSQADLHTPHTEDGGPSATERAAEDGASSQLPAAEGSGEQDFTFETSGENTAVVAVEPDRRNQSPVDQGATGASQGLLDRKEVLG
The experiment can be described thus: pull-down.

B1: lacritin-intein fusion protein (lacritin coupled to chitin beads via chitin-binding intein) (ligand, human, UniProt Q9GZZ8 20-138, looked up)
chain: EDASSDSTGADPAQEAGTSKPNEEISGPAEPASPPETTTTAQETSAAAVQGTAKVTSSRQELNPLKSIVEKSILLTEQALAKAGKGMHGGVPGGKQFIENGSEFAQKLLKKFSLLKPWA
With B1, the binding result is given as “binds”.

These data come from article PMC1666580 (The Journal of Cell Biology, 2006).
